Test results taken from the nanobody polyreactivity screen of Harvey et al. (2022).

Test: yeast display, Sf9 membrane polyspecificity reagent, FACS + sequencing; frameworks hold sequencing errors
How it was run: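 Sorting gates, low and high (top ~1%), were placed on anti-HA fluorescence to track expression and on streptavidin fluorescence to track reagent binding. A clone's polyreactivity label is taken from the gate it came out of. The reagent was 10% biotinylated, detergent-solubilized Sf9 membrane, applied for 1 hour at 4 °C to galactose-induced yeast display cells.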

Sequence | polyreactivity (PSR sort gate)
QVQLVESGGGLVQAGGSLRLSCAASGSTFYIYAMGWYRQAPGKERELVAAISWRGGRTYYADSVKGRFTISRDNAKNTVYLQMNSLKPEDTAVYYCAAAYLRWSGTYYYVDGYDYWGQGTQVTVSS | high polyreactivity
QVQLVESGGGLVQAGGSLRLSCAASGSTFYIYAMGWYRQAPGKERELVAAITWSGGSTYYADSVKGRFTISRDNAKNTVYLQMNSQKPEDTAVYYCATKRARYSYDYWGQGTQVTVSS | high polyreactivity
QVQLVESGGGLVQAGGSLRLSCAASGSTFYIYAMGWYRQAPGKEREMVARISGSGGSTYYADSVKGRFTISRDNAKNTVYLQMNSLKPEDTAVYYCAADDIYKYYQYYAVPYYRYDYWGQGTQVTVSS | low polyreactivity
QVQLVESGGGLVQAGGSLRLSCAASGSTFYIYGMGWYRQAPGKERELVARISSGGSTYADSVKGRFTISRDNAKNTVYLQMNSLKPEDTAVYYCAAAAARTYRRYRYEGYYYWGQGTQVTVSS | high polyreactivity
QVQLVESGGGLVQAGGSLRLSCAASGSTFYKYAMGWYRQAAGKERELVASISRSGGSTSYADSVKGRFTISRDNAKNTVYLQMNCLKPEDTAVYYCAATWRQHPGSMGYWGQGTQVTVSS | high polyreactivity
QVQLVESGGGLVQAGGSLRLSCAASGSTFYKYAMGWYRQAPGKERELVAAISRGGSTYYADSVKGRFTISRDNAKNTVYLQMNSLKPEDTAVYYCAAETVSYYSKYDYWGQGTQVTVSS | low polyreactivity
QVQLVESGGGLVQAGGSLRLSCAASGSTFYKYAMGWYRQAPGKERELVASISRRAGSTYYADSVKGRFTISRDNAKNTVYLQMNSLKPEDTAVYYCAAVGRYDRVFDYDYWGQGTQVTVSS | high polyreactivity
QVQLVESGGGLVQAGGSLRLSCAASGSTFYKYAMGWYRQAPGKERELVASISRSGGSTSYADSVKGRFTISRDNAKNTVYLQMNSLKPEDTAVYYCAADRYSSPYYSSPNEYDYWGQGTQVTVSS | high polyreactivity
QVQLVESGGGLVQAGGSLRLSCAASGSTFYKYAMGWYRQAPGKERELVASISRSGGSTSYADSVKGRFTITRDNAKNTVYLQMNSLKPEDTAVYYCAATWRQHPGSMGYWGQGTQVTVSS | high polyreactivity
QVQLVESGGGLVQAGGSLRLSCAASGSTFYLNAMGWYRPAPGKERELVAAISSGGRTYYADSVKGRFTISRDNAKNTVYLQMISLKPEDTGVYYCNAVRYLRGAYNYWGQGTQVTVSS | high polyreactivity
QVQLVESGGGLVQAGGSLRLSCAASGSTFYLYAMGLYRQAPGKERELVAAISSGGRTNYADSVKGRFTISRDNAKNTVYLQMNSLKPEDTAVYYCAARIQWPTWSLYYYWGQGTQVTVSS | high polyreactivity
QVQLVESGGGLVQAGGSLRLSCAASGSTFYLYAMGWYRQAPGKEREFVAAISWSGGRTYYAHSVKGRFTISRDYAKNTVYLQMNSLKPEDTAVYYCAARRRYTWQYTSYDMGYWGQGTQVTVSS | low polyreactivity
QVQLVESGGGLVQAGGSLRLSCAASGSTFYLYTMGWYRQAPGKERELVAASSINGGITYYADSVKGRFTISRDNAKNTVYFQMYSLKPEDTAVYYCAKSSGQTDVGSFYYRLDYWGQGTQVTVSS | low polyreactivity
QVQLVESGGGLVQAGGSLRLSCAASGSTFYNNAMGWYRQAPGKERELVAAISSGGGTYYADSVKGRFTISRDNAKNTVYLQMNSLKPEDTAVYYCAADFANTTHWGRIKRYDYWGQGTQVTVSS | low polyreactivity
QVQLVESGGGLVQAGGSLRLSCAASGSTFYNNAMGWYRQAPGKERELVAAITSSVGSTHYADSVKGRFTISRDNAKNTVYLQMNSLKPEDSAVYYCNARGRLYGHLYDYWGQGTQVTVSS | low polyreactivity
QVQLVESGGGLVQAGGSLRLSCAASGSTFYNYVMGWYRQAPGKERELVAAISSSGGNTYYADSVKGRFTISRDNAKNTVYLQMNSLKPEDTAVYYCAARERHPSGGKYDYWGQGTQVTVSS | high polyreactivity
QVQLVESGGGLVQAGGSLRLSCAASGSTFYPNAMGWYRQAPGKERELVAAIDRGGSTSYADSVKGRFTISRDNAKNTVYLQMNSLKPEDTAVYYCAVARGGRRKYEYWGQGTQVTVSS | low polyreactivity
QVQLVESGGGLVQAGGSLRLSCAASGSTFYPNAMGWYRQAPGKERELVAAIRTRGGSTYYADSVKGRFTISRDNAKNTVYLQMNSLKPEDTAVYYCAAEKRYRKAFDYWGQGTQVTVSS | low polyreactivity
QVQLVESGGGLVQAGGSLRLSCAASGSTFYPNAMGWYRQAPGKERELVAAISRSGGSTYYADSVKGRFTISRDNAKNTVYLQMNSLKPEDTAVYYCAADGRSPARYDYWGQGTQVTVSS | low polyreactivity
QVQLVESGGGLVQAGGSLRLSCAASGSTFYPNSMGWYRQAPGKERELVDAISWSGGYTYYADSVKGRFTISRDNAKNTVFLQMNSLNPEDTAVYYCAAREFLYSWYTHLKYDYWGQGTQVTVSS | low polyreactivity
QVQLVESGGGLVQAGGSLRLSCAASGSTFYPYALGWYRQAHGKVRELVATISFSGGRTYYADSVKGRFTISRDNAKNTVYLQMHSLKPEDTAVYYCAAVSYWHDGHRGNYWGQGTQVTVSS | low polyreactivity
QVQLVESGGGLVQAGGSLRLSCAASGSTFYPYAMGWYRPAPGKERELVAGITSSGGSTYYADSVKGRFTISRDNAKNTVYLQMISLKPEDTAVYYCNAYIDALPVSYQYDYWGQGTQVTVSS | low polyreactivity

Sequence | polyreactivity (PSR sort gate)
QVQLVESGGGLVQAGGSLRLSCAASGSTFYPYAMGWYRQAPGKERELVAAINWSGGTTYYADSVKGRFTISRDNAKNTVYLQLNSLKPEDTAVYYCAADGYPPGYGYWGQGTQVTVSS | low polyreactivity
QVQLVESGGGLVQAGGSLRLSCAASGSTFYPYAMGWYRQAPGKERELVAAISSGGSTYYADSVKGRFTISRDNAKNTVYLQMNSLKPEDTAVYYCAADLYYAYYWGQGTQVTVSS | low polyreactivity
QVQLVESGGGLVQAGGSLRLSCAASGSTFYPYAMGWYRQATGKERELVAGISWSGGSTYYADSVKGRFTFSRDNAKNTVYLQMNSLNPEDTAVYYCAVDVYWSVIYDYWGQGTQVTVSS | low polyreactivity
QVQLVESGGGLVQAGGSLRLSCAASGSTFYPYFMGWYREAPGKERELVAAITYRGSTYYADSVKGRFTISRDNAKYTVYLQMNSLKPEDTAVYYCAAAVYAIDYTYYYWGQGTQVTVSS | high polyreactivity
QVQLVESGGGLVQAGGSLRLSCAASGSTFYPYGMGWYRPAPGKERELVAAITDSGGSTYYADSVKGRFTISRDNAKNTVYLQMNSLKPEDTAVYYCAKTYWYPWRASLWHEYDYWGQGTQVTVSS | low polyreactivity
QVQLVESGGGLVQAGGSLRLSCAASGSTFYQYAAMGWYRQAPGKERELVAAISGRGTRTYYADSVKGRFTISRDNAKNTVYLQMNSLKPEDTAVYYCAAEVNIRQYGFDYWGQGTQVTVSS | high polyreactivity
QVQLVESGGGLVQAGGSLRLSCAASGSTFYQYAMGWYRQAPGKERELVAAISRISGSTSYADSVKGRFTISRDNAKNTVYLQLYSLKPEDTAVYYCAKGTAPIPYRGRVGTSKSDYWGQGTQVTVSS | low polyreactivity
QVQLVESGGGLVQAGGSLRLSCAASGSTFYQYAMGWYRQAPGKERELVAAISWDSGSTYYADSVKGRFTISRDNAKNTVYLQMNSLKPEDTAVYYCAASWYGYYDCYAVEYDYLGQGTQVTVSS | low polyreactivity
QVQLVESGGGLVQAGGSLRLSCAASGSTFYQYAMGWYRQSPGKERELVAAISGISGSTSYADSVKGRFTISRDNAKNTVYLQMNSLKPEDTAVYYCAKGTAPIPYRGRVGTSKSDYWGQGTQVTVSS | low polyreactivity
QVQLVESGGGLVQAGGSLRLSCAASGSTFYQYVMGWYRQAPGKERELVAAISGSGGSTYYADSVKGRFTISRDNAKNTVYLQMNSLKPEDTAVYYCAADNYFDWYWLFFEYDYWGQGTQVTVSS | high polyreactivity
QVQLVESGGGLVQAGGSLRLSCAASGSTFYRNAMGWYIQAPGKVRELVAAISQSGGRTYYADSVKGRFTISRDNAKNTVYLQMNSLKPEDTAVYYCATAFRKDRGFYPSRDYWGQGTQVTVSS | high polyreactivity
QVQLVESGGGLVQAGGSLRLSCAASGSTFYRNVMGWYRQAPGKERELVAAISSGGSTYYADSVIGRFTISRDNAKNTVYLQLNSLKPEDTAVYYCARRLTREYDYWGQGTQVTVSS | low polyreactivity
QVQLVESGGGLVQAGGSLRLSCAASGSTFYRYAIRWYRQAPGKERELVAAISKRGGSTYYADSVKGRFTISRDNAKNTVYLQMNSLKPEDTAVYYCAADPFHYGGGDDYWGQGTQVTVSS | high polyreactivity
QVQLVESGGGLVQAGGSLRLSCAASGSTFYRYAKVSYRQAPGKARELVAAITRTGGSTYADSVKGRFTISRDNAKYTDYLQMKSLKPEDTAVYYCAVQRYYVSSISPFYYWGQGTQVTVSS | low polyreactivity
QVQLVESGGGLVQAGGSLRLSCAASGSTFYRYAMGWYRQAPGKEREFVAAISRSGGSTYYADSVKGRFTISRDNAKNTVYLQMNSLNPEDTAVYYCNALNYRYRKYDYWGQGTQVTVSS | high polyreactivity
QVQLVESGGGLVQAGGSLRLSCAASGSTFYRYAMGWYRQAPGKEREFVAAISTRGGSTHYADSVKGRFTISRDTAKNTVYLHMNSLKPEDTAVYYCNARGYYSVPSNTGIRYYRFDYWGQGTQVTVSS | high polyreactivity
QVQLVESGGGLVQAGGSLRLSCAASGSTFYRYAMGWYRQAPGKERELVAAIDSSGGSTYYPDSVKGRFTISRDNAKNTVYLQMNSLKPEDTAVYYCATDLPPGGYDSWGQVTQVTVSS | low polyreactivity
QVQLVESGGGLVQAGGSLRLSCAASGSTFYRYAMGWYRQAPGKERELVAAISKRGGSTYYADSVKGRFTISRDNAKNTVYLQMNSLKPEDTAVYYCAADPFHYGGGDDYWGQGTQVTVSS | high polyreactivity
QVQLVESGGGLVQAGGSLRLSCAASGSTFYRYAMGWYRQAPGKERELVAAISSGGRTYYADSVKGRFTISRDNAKNTVYLQMNSLKPEDTAVYYCAADDSEGFDYWGQGTQVTVSS | high polyreactivity
QVQLVESGGGLVQAGGSLRLSCAASGSTFYRYAMGWYRQAPGKERELVAAITRSDGITYYADSVKGRFTISRDNAKNTVYLQMNSLKPEDTAVYYCAKGYVGSFYDDFYYWGQGTQVTVSS | low polyreactivity
QVQLVESGGGLVQAGGSLRLSCAASGSTFYRYAMGWYRQAPGKERELVARIRLSGTSTYYADSVKGRFTISRDNAKNTVYLQMNSLKPEDTAVYYCAAELYSRNWRSQYDYWGQGTQVTVSS | high polyreactivity
